Reference: paper PMC5726920

How the values were obtained:
[1] = molecular target: T1, heart isozyme of murine fatty acid binding protein (mouse), P11404; experiment: native MS; details: remark: other sources report otherwise
T1 chain: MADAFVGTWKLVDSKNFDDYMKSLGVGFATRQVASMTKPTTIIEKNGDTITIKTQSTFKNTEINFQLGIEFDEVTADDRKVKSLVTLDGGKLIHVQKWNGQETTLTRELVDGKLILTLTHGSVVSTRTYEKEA

[2] = molecular target: T2, protein deglycase DJ-1, Q99497; experiment: native MS; details: remark: other sources report otherwise
T2 chain: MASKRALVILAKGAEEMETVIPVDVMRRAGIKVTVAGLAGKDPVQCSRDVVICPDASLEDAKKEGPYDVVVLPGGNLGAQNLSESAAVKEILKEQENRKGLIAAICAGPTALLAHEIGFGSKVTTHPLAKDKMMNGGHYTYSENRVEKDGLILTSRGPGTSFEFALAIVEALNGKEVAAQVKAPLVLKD

B1: heart isozyme of murine fatty acid binding protein, P11404 1-133 (natural protein)
chain: T1 chain
Binder B1 has a stoichiometry N [1] of 2.

B2: protein deglycase DJ-1, Q99497 1-189 (enzyme)
chain: T2 chain
B2 showed a stoichiometry N [2] of 2.
